The source of these data is US6548475.

The target in this test is molecules present at the cell surface of both cerebellar neurons and PC12 cells. Put plainly: cell-based or functional assay.

“purified recombinant human KAL protein (isolated from transfected CHO cells, clone CHKAL2-3/dll), coated on plastic (from UniProt P23352 25-680)” registered a percentage of adherent cells (mouse cerebellar neurons on KAL-coated surface, 90 min) of 80%.
